In assay [1] the target is T1, NOTCH1 (human, UniProt P46531 19-2555).
T1 construct: whole, on cells; Endogenous protein from cell lysates (antibody array, co-IP); also called NOTCH1 protein
Nature of the assay: co-immunoprecipitation, THP-1 cells and human AML patient blasts (figure legend).
Procedure: (§1) Cell lysate of 10×10⁶ THP-1 cells or 5×10⁶ human AML patient blasts (n=2) were subjected to CO-IP with Protein G Plus/Protein A agarose beads.
(§2) Cells (1-5×10⁶) were lysed in 400 μl of Pierce Co-Immunoprecipitation lysis buffer (Thermo Scientific) supplemented with protease and phosphatase inhibitors (Roche). Cell lysis was performed on ice for 20 min and the cell lysate was sonicated for 5 sec three times. After centrifugation with 14,000 g at 4° C. for 15 min, the cell lysate supernatant was transferred to new tubes immediately and added to 50% Protein G Plus/Protein A agarose beads (EMD Millipore, Tremecula, CA, USA) with a ratio of 100 μl for a lml sample solution. After incubation with rotation at 4° C. for 1 h, and the mixture was centrifuged at 14,000 g for 10 min at 4° C. The supernatant was transferred to new tubes, added with 2-20 μg antibody and incubated on rotating shaker at 4° C. overnight. After centrifugation, the supernatant was incubated with 50 μl proteinA/G agarose at 4° C. with rotation for 2 h. The agarose beads were washed five times with ice-cold Pierce Co-Immunoprecipitation lysis buffer. Then 20 μl 2×loading buffer was added, boiled for 5 min and subjected to Western blotting. The corresponding normal antibodies were applied as negative control for CO-IP.

Assay [2] deals with T2, NOTCH2 (human, UniProt Q04721 26-2471).
T2 construct: whole, on cells; Endogenous protein from cell lysates (co-IP); also called NOTCH2 protein
The assay is described as above.
Procedure: as §1, §2

T2 sequence (Q04721 26-2471): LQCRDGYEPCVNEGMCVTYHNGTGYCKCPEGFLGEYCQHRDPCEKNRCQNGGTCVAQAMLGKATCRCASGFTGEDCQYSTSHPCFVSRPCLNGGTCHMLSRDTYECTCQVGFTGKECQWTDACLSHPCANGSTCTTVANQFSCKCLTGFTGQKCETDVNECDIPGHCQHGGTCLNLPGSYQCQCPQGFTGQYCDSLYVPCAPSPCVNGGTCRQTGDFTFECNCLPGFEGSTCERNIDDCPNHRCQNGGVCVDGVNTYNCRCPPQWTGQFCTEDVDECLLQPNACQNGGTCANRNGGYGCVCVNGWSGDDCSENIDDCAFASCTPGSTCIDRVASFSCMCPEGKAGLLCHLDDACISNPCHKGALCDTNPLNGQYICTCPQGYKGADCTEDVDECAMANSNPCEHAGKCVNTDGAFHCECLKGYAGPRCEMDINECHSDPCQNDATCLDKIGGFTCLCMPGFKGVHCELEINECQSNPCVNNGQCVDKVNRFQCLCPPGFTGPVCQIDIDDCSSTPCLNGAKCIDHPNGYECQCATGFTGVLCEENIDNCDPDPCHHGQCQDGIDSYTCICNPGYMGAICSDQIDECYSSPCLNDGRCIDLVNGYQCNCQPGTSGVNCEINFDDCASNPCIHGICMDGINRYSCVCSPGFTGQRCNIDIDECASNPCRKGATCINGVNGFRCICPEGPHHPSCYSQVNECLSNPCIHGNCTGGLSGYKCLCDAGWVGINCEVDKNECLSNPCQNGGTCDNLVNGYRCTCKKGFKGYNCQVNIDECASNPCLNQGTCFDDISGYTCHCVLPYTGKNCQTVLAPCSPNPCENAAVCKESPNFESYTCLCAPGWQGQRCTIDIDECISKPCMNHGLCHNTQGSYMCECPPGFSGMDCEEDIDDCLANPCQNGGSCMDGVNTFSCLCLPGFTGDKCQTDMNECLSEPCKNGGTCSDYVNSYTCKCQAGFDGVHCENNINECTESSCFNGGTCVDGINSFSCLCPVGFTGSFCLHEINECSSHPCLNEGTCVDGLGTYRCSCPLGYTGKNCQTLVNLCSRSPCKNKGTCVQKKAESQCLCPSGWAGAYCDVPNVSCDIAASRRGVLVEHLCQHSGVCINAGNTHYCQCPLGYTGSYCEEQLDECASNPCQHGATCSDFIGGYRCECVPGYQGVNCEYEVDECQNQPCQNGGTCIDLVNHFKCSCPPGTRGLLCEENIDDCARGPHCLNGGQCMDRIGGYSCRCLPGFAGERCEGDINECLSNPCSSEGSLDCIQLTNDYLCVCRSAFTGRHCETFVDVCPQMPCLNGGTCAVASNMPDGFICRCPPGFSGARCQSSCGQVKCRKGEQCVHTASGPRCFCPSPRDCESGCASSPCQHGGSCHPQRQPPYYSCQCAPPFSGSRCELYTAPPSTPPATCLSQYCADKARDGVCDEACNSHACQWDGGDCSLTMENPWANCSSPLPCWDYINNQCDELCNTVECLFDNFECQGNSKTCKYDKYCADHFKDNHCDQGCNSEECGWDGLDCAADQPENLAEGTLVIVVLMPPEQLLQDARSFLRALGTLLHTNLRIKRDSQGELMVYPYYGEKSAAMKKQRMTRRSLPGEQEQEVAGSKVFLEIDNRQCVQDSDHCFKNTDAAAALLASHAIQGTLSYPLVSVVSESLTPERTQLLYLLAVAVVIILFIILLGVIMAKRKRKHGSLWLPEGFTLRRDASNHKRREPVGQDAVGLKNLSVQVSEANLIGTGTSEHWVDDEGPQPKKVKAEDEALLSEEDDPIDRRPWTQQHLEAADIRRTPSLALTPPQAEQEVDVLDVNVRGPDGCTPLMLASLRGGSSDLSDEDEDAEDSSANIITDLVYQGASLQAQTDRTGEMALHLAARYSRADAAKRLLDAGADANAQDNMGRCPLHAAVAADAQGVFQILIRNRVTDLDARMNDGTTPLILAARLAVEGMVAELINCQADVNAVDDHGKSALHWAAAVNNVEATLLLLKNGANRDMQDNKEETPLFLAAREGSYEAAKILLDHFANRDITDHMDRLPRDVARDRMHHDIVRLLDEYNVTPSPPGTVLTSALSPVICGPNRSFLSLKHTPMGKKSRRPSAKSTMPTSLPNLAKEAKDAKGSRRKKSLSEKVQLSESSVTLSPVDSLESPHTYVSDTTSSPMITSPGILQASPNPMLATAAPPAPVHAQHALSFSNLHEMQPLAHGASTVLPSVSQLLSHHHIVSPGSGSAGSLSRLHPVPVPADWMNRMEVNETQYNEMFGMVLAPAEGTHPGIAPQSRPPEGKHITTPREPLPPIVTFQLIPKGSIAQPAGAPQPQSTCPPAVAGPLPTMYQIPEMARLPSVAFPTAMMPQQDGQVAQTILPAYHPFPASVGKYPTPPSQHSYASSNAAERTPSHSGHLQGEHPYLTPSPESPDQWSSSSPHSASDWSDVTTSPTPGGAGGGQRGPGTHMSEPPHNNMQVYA

B1: EGFL7 protein (endogenous, in lysates of human AML cells: Kasumi-1, THP-1, primary AML patient blasts) (ligand)
chain: TEHAYRPGRRVCAVRAHGDPVSESFVQRVYQPFLTTCDGHRACSTYRTIYRTAYRRSPGLAPARPRYACCPGWKRTSGLPGACGAAICQPPCRNGGSCVQPGRCRCPAGWRGDTCQSDVDECSARRGGCPQRCVNTAGSYWCQCWEGHSLSADGTLCVPKGGPPRVAPNPTGVDSAMKEEVQRLQSRVDLLEEKLQLVLAPLHSLASQALEHGLPDPGSLLVHSFQQLGRIDSLSEQISFLEEQLGSCSCKKDS
notes: Endogenous protein immunoprecipitated from cell lysates; also called Epidermal growth factor-like domain 7
On to B1, for which the binding result in assay [1] and in assay [2] was “binds” throughout.
